Assays:
transglutaminase 2 = target: T1, transglutaminase 2 (UniProt P08587); assay: In-vitro transglutaminase 2 binding assay (TGM2); assay type: biochemical, guinea pig
T1 construct: transglutaminase purified from guinea pig liver; purchased Sigma T5398; host or cells: guinea pig liver
T1 sequence (P08587 1-690): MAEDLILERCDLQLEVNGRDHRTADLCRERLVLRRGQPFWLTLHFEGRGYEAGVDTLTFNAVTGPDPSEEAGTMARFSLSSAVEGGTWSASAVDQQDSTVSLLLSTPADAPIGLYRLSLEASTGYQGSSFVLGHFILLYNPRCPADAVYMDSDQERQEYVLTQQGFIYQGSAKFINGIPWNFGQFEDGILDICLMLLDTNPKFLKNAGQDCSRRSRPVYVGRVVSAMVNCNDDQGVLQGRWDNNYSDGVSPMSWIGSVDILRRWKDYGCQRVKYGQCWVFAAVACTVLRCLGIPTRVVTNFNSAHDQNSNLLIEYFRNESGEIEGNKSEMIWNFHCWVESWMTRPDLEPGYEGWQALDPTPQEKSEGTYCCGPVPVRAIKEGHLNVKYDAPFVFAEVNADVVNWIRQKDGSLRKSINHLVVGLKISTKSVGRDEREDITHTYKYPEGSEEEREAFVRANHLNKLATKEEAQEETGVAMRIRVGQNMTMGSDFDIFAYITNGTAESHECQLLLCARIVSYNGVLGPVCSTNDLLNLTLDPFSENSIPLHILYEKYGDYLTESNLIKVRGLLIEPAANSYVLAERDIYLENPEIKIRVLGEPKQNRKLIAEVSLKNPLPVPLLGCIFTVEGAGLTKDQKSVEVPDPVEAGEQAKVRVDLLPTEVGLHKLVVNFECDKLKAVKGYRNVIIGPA
Description: A binding assay of LCE6A by transglutaminase 2 (transglutaminase purified from guinea pig liver, Sigma T5398) was performed in vitro.
(§1) In a first experiment, the applicant tested the capacity of TGM2 to form bridges between LCE-His and a molecule bearing an amine bond, monodansyl cadaverine (MDC). For this, TGM2 (10 ng/μL) was incubated in the presence of 0.35 μg of LCE6A-His in solution in a buffer 50 mM Tris, 100 mM DTT, pH 7.4, with addition of 10 mM CaCl2 and 500 μM MDC (Fluka). After incubation for 2 h or 18 h at 37° C., the reaction is stopped by adding EDTA to final 25 mM. The negative control corresponds to the same experiment performed in the absence of CaCl2 and in the presence of 100 mM of ETDA after incubation for 18 h. The reaction product is separated by SDS-PAGE 15%, then visualized by illumination with UV.
In a second experiment, the applicant also tested the capacity of TGM2 to form bridges of LCE6A with itself. For this, TGM2 (10 ng/μL) was incubated in the presence of 0.35 μg of LCE6A-His in a buffer 50 mM Tris, 100 mM DTT, pH 7.4, with addition of 10 mM CaCl2. After incubation for 2 h or 18 h at 37° C., the reaction is stopped by adding EDTA to final 25 mM. The negative control corresponds to the same experiment performed in the absence of CaCl2 and in the presence of 100 mM of ETDA after incubation for 18 h. The reaction product is separated by SDS-PAGE 15% and transferred onto a nitrocellulose membrane. The intermolecular bonds are visualized by Western Blot as described above with an anti-His antibody (mouse monoclonal IgG1 “Tetra-His antibody”, Qiagen).

transglutaminase 3 = target: T2, transglutaminase 3 (Homo sapiens, UniProt Q08188); assay: In-vitro transglutaminase 3 binding assay (TGM3); assay type: biochemical
T2 construct: purchased R&D Systems
T2 sequence (Q08188 1-693): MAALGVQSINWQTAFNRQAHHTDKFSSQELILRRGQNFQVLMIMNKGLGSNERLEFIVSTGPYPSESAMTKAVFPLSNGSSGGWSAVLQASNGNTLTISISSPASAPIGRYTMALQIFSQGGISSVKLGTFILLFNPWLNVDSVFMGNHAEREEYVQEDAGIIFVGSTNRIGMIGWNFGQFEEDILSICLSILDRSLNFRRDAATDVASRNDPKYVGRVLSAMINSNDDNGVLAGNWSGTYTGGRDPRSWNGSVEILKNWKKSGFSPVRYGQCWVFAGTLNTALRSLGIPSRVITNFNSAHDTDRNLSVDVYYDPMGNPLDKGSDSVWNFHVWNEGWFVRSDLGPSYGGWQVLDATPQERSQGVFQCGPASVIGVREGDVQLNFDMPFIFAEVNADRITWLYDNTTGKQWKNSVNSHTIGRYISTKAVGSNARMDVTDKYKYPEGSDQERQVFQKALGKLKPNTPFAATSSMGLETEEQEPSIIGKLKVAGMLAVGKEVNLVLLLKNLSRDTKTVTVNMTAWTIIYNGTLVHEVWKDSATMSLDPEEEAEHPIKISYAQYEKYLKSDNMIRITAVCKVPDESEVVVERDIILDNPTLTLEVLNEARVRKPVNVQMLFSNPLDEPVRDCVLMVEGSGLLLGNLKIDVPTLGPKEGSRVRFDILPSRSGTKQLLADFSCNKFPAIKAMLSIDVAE
Description: A binding assay of LCE6A by transglutaminase 3 (human recombinant transglutaminase 3, R&D Systems) was performed in vitro. These assays are carried out according to the same experimental protocol as that described in example 4 paragraph 2 with transglutaminase 2.
as §1, with “TGM3” for “TGM2”, “and” for “and a molecule bearing an amine bond,”
In a second experiment, the applicant tested the capacity of TGM3 to form bridges of LCE6A with itself. For this, TGM3 (10 ng/μL) was incubated in the presence of 0.35 μg of LCE6A-His in a buffer 50 mM Tris, 100 mM DTT, pH 7.4, with addition of 10 mM CaCl2. After incubation for 2 h or 18 h at 37° C., the reaction is stopped by adding EDTA to final 25 mM. The negative control corresponds to the same experiment performed in the absence of CaCl2 and in the presence of 100 mM of ETDA after incubation for 18 h. The reaction product is separated by SDS-PAGE 15% and transferred onto a nitrocellulose membrane. The intermolecular bonds are visualized by Western Blot as described above with an anti-His antibody (mouse monoclonal IgG1 “Tetra-His antibody”, Qiagen).

[1] = 100 mM EDTA, absence of calcium, 18 h
[2] = absence of calcium, 100 mM EDTA

| Molecule | capacity of TGM2 to form bridges between LCE-His and MDC, fluorescent bands, negative control (transglutaminase 2; [1]) | capacity of TGM2 to form bridges between LCE-His and monodansyl cadaverine (MDC), fluorescent bands after SDS-PAGE under UV (transglutaminase 2; TGM2 10 ng/μL, 10 mM CaCl2, 500 μM MDC, starting from 2 h of incubation at 37° C.) | capacity of TGM2 to form bridges of LCE6A with itself, Western Blot with anti-His antibody (transglutaminase 2; TGM2 10 ng/μL, 10 mM CaCl2, 2 h or 18 h at 37° C.) | capacity of TGM2 to form bridges of LCE6A with itself, Western Blot, negative control (transglutaminase 2; [2]) | capacity of TGM3 to form bridges between LCE-His and MDC, fluorescent bands, negative control (transglutaminase 3; [1]) | capacity of TGM3 to form bridges between LCE-His and monodansyl cadaverine (MDC), fluorescent bands after SDS-PAGE under UV (transglutaminase 3; TGM3 10 ng/μL, 10 mM CaCl2, 500 μM MDC, starting from 2 h of incubation at 37° C.) | capacity of TGM3 to form bridges of LCE6A with itself, Western Blot with anti-His antibody (transglutaminase 3; TGM3 10 ng/μL, 10 mM CaCl2, 2 h or 18 h at 37° C.) | capacity of TGM3 to form bridges of LCE6A with itself, Western Blot, negative control (transglutaminase 3; [2]) | substrate of transglutaminase 2 (conclusion) (transglutaminase 2) | substrate of transglutaminase 3 (conclusion) (transglutaminase 3) |
| --- | --- | --- | --- | --- | --- | --- | --- | --- | --- | --- |
| LCE6A-His: recombinant LCE6A possessing a C-terminal histidine tag (protein, UniProt A0A183 1-80, looked up, His tag) Late cornified envelope …: MSQQKQQSWKPPNVPKCSPPQRSNPCLAPYSTPCGAPHSEGCHSSSQRPEVQKPRRARQKLRCLSRGTTYHCKEEECEGD | No fluorescent band, apart from that corresponding to the free MDC, is detected | several fluorescent bands were detected | several bands of higher molecular weight migrating to a size equivalent to dimers or multimers of LCE6A-His | Only the band corresponding to monomeric LCE6A-His is detected | No fluorescent band, apart from that corresponding to the free MDC, is detected | several fluorescent bands were detected | several bands of higher molecular weight migrating to a size equivalent to dimers or multimers of LCE6A-His | Only the band corresponding to monomeric LCE6A-His is detected | – | – |
| LCE6A: polypeptide of 80 amino acids of the Late Cornified Envelope family, expressed in the epidermis (protein, listed as Homo sapiens) MSQQKQQSWKPPNVPKCSPPQRSNPCLAPYSTPCGAPHSEGCHSSSQRPEVQKPRRARQKLRCLSRGTTYHCKEEECEGD | – | – | – | – | – | – | – | – | substrate of transglutaminase 2 | substrate of transglutaminase 3 |

— patent US11479580B2, “Polypeptide expressed in the stratum corneum and use thereof” (CENTRE NATIONAL DE LA RECHERCHE SCIENTIFIQUE—CNRS, priority 2010, dated 2022)
